In PMC11702601:

Columns and labels:
Assay in all cases: MST
[1] = target: T2 gp006^I20A-6×His (phage T2)
[2] = target: T2 gp006-6×His (phage T2)
[3] = target: T2 gp009-6×His (phage T2)
[4] = target: T2 gp057-6×His (phage T2)

bNACHT11 (natural protein)
Kd [1]: 351 nM
Kd [2]: 80 nM
Kd [3]: 269 nM
Kd [4]: 149 nM
